The target in experiment [1] is T1, rabbit skeletal muscle actin (rabbit, UniProt P68135 1-377). Kind of experiment: co-sedimentation.
Experiment [2] concerns the target T1, rabbit skeletal muscle actin. The experiment is described as follows: pyrene-actin polymerisation kinetics.
Experiment [3] has the same target. Kind of experiment: pyrene-actin polymerisation kinetics. The source holds these as a separate data set.

B1: GST-tensin p29(1-263) (domain or fragment)
chain: MDFGSVMNQAATPCSPAVNYELPSPGQSITKQVDTPDATRSPRGGQAHRKASRSMSVTAAMESSCELDLVYITERIIAVSYPSTAEEQSFRSNLREVAHMLKSKHGDNYVLFNLSERRHDISKLHPKVLDFGWPDLHTPALEKICSICKAMDTWLNAAAHNVVVLHNKGNRGRLGVVVAAYMHYSNISASADQALDRFAMKRFYEDKVVPVGQPSQKRYIHYFSGLLSGSIKMNNKPLFLHHVIMHGIPNFESKGGCRPFLKI
For the molecule B1, the “stoichiometry N” value in experiment [1] is 2 to 4 actin subunits per tensin fragment.

B2: full-length epitope-tagged recombinant chick cardiac muscle tensin (natural protein)
chain: MDFGSVMNQAATPCSPAVNYELPSPGQSITKQVDTPDATRSPRGGQAHRKASRSMSVTAAMESSCELDLVYITERIIAVSYPSTAEEQSFRSNLREVAHMLKSKHGDNYVLFNLSERRHDISKLHPKVLDFGWPDLHTPALEKICSICKAMDTWLNAAAHNVVVLHNKGNRGRLGVVVAAYMHYSNISASADQALDRFAMKRFYEDKVVPVGQPSQKRYIHYFSGLLSGSIKMNNKPLFLHHVIMHGIPNFESKGGCRPFLKIYQAMQPVYTSGIYNVQGDSQTGICITIEPGLLLKGDILLKCYHKKFRSPTRDVIFRVQFHTCAVHDLDIVFGKEDLDEAFRDERFPEYGKVEFVFSYGPEKIQGMEHLENGPSVSVDYNTSDPLIRWDSYENFNIQREDSTEGTWAEPALPGKHLEKEVGHTQGPLDGSLYAKVKKKDSLHGSIGAVNAARLPLSAAPNHVEHTLSVSSDSGNSTASTKTDRTDEPGAPGAPTGHAVLSPEEKRELDRLLVGFGLESAPPMHNHAPGPAPARLPAGPGRHVVPAQVHVNGAGTPLLAERETDILDDELPNQDGHSVGSLGTLSSLDGTTTASEAGFHEAPRVGSLSSLPNGPASYNGAEKMLKEGLYEAEPLSNGAYPYSNQNTLMGHHLRDPLAHLRPSASAQEHLAGYPQRQPASTSPAWLQPPVPQPYLYGYDLPSAHRSQSFPAVGTAKYEANLALPQAPARSTSSREAVQRGLNSWQQQGGSRPPSQLHDGGLESHSPSLSSCSPQPSPLQPMPPHSHSMPEFPRAPSRREIEQSIEALDVLMLDLAPSVHKSQSVPSAATRQDKPAAMLSSLSAQPLSGHYAQPTPQVVQPRSFGTSVGTDPLAKAYSPGPLVPAARSTAEPDYTVHEYRETYTPYSYQPVPEPRSYGSAPASILPLSASYSPAGSQQLLVSSPPSPTAPAQSQLPHKGLESYEDLSRSGEEPLNLEGLVAHRVAGVQSREKSPEESTVPARRRTPSDSHYEKSSPEPGSPRSPTVLSPEVVSTIAANPGGRPKEPHLHSYKEAFEEMESASPSSLTSGGVRSPPGLAKTPLSALGLKPHNPADILLHPVGELEGEAGADSEEEPRSYVESVARTATTGRAGNLPAAQPVGLEVPARNGAFGNSFTVPSPVSTSSPIHSVDGASLRSYPSEGSPHGTVTPPHAVAETAYRSPMVSQTPSAHSSYQTSSPSSFQAGTLGSPYASPDYPDGRAGFQPDPQARQQPQVSVVGVHALPGSPRTLHRTVATNTPPSPGFGRRAANPAVASVPGSPGLGRHTVSPHAPPGSPSLARHQMAAVPPGSPMYGYSSPEERRPTLSRQSSASGYQPPSTPSFPVSPAYYPGTSTPHSSSPDSAAYRQGSPTPQPALPEKRRMSAGERSNSLPNYATVNGKASSPLSSGMSSPSSGSAVAFSHTLPDFSKFSMPDISPETRANVKFVQDTSKYWYKPDISREQAIALLKDREPGAFIIRDSHSFRGAYGLAMKVASPPPTVMQQNKKGDITNELVRHFLIETSPRGVKLKGCPNEPNFGCLSALVYQHSIMPLALPCKLVIPDRDPMEEKKDAASTTNSATDLLKQGAACNVLFINSVEMESLTGPQAISKAVAETLVADPTPTATIVHFKVSAQGITLTDNQRKLFFRRHYPLNTVTFCDLDPQERKWTKTDGSGPAKLFGFVARKQGSTTDNVCHLFAELDPDQPAAAIVNFVSRVMLGSGQKR
On to B2, for which the figures for the Kd in experiment [2], in experiment [3] and in experiment [1] were 10 to 100 nM, around 20 nM and 100 nM, respectively. Further, in experiment [1], the “stoichiometry N” value came out at 11 actin subunits per tensin.

A word on the stoichiometry N: it is the number of molecules, sites or subunits per partner or assembly. What is called Kd is the concentration at which binding is half-saturated. High values mean lower affinity, low ones higher affinity.

Values taken from PMC2120063 (The Journal of Cell Biology, 1994).
